No end group written: not given here.
Assays:
[1] = molecular target: low density lipoprotein receptor-related protein-1 (LRP-1), mouse (mouse) (UniProt Q91ZX7); test: cell-based or functional assay
[2] = molecular target: beta-F1 ATPase (ATP synthase beta subunit), mouse, on brain microvessels (mouse, UniProt P56480 47-529); test: cell-based or functional assay
Sequence of beta-F1 ATPase (ATP synthase beta subunit), mouse, on brain microvessels (P56480 47-529): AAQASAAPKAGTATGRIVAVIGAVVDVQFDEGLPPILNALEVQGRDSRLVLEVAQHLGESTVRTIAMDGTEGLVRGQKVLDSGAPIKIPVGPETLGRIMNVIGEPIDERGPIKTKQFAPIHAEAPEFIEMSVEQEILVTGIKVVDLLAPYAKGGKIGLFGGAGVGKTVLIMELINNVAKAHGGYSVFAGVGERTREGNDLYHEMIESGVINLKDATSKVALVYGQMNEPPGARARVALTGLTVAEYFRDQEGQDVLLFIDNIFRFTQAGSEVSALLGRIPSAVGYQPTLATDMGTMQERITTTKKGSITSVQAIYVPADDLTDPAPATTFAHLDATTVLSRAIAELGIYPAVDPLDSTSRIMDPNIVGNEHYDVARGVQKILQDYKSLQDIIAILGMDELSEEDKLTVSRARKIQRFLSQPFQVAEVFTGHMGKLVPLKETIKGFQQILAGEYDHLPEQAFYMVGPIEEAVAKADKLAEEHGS

Sequence of low density lipoprotein receptor-related protein-1 (LRP-1), mouse (mouse) (Q91ZX7 20-4545): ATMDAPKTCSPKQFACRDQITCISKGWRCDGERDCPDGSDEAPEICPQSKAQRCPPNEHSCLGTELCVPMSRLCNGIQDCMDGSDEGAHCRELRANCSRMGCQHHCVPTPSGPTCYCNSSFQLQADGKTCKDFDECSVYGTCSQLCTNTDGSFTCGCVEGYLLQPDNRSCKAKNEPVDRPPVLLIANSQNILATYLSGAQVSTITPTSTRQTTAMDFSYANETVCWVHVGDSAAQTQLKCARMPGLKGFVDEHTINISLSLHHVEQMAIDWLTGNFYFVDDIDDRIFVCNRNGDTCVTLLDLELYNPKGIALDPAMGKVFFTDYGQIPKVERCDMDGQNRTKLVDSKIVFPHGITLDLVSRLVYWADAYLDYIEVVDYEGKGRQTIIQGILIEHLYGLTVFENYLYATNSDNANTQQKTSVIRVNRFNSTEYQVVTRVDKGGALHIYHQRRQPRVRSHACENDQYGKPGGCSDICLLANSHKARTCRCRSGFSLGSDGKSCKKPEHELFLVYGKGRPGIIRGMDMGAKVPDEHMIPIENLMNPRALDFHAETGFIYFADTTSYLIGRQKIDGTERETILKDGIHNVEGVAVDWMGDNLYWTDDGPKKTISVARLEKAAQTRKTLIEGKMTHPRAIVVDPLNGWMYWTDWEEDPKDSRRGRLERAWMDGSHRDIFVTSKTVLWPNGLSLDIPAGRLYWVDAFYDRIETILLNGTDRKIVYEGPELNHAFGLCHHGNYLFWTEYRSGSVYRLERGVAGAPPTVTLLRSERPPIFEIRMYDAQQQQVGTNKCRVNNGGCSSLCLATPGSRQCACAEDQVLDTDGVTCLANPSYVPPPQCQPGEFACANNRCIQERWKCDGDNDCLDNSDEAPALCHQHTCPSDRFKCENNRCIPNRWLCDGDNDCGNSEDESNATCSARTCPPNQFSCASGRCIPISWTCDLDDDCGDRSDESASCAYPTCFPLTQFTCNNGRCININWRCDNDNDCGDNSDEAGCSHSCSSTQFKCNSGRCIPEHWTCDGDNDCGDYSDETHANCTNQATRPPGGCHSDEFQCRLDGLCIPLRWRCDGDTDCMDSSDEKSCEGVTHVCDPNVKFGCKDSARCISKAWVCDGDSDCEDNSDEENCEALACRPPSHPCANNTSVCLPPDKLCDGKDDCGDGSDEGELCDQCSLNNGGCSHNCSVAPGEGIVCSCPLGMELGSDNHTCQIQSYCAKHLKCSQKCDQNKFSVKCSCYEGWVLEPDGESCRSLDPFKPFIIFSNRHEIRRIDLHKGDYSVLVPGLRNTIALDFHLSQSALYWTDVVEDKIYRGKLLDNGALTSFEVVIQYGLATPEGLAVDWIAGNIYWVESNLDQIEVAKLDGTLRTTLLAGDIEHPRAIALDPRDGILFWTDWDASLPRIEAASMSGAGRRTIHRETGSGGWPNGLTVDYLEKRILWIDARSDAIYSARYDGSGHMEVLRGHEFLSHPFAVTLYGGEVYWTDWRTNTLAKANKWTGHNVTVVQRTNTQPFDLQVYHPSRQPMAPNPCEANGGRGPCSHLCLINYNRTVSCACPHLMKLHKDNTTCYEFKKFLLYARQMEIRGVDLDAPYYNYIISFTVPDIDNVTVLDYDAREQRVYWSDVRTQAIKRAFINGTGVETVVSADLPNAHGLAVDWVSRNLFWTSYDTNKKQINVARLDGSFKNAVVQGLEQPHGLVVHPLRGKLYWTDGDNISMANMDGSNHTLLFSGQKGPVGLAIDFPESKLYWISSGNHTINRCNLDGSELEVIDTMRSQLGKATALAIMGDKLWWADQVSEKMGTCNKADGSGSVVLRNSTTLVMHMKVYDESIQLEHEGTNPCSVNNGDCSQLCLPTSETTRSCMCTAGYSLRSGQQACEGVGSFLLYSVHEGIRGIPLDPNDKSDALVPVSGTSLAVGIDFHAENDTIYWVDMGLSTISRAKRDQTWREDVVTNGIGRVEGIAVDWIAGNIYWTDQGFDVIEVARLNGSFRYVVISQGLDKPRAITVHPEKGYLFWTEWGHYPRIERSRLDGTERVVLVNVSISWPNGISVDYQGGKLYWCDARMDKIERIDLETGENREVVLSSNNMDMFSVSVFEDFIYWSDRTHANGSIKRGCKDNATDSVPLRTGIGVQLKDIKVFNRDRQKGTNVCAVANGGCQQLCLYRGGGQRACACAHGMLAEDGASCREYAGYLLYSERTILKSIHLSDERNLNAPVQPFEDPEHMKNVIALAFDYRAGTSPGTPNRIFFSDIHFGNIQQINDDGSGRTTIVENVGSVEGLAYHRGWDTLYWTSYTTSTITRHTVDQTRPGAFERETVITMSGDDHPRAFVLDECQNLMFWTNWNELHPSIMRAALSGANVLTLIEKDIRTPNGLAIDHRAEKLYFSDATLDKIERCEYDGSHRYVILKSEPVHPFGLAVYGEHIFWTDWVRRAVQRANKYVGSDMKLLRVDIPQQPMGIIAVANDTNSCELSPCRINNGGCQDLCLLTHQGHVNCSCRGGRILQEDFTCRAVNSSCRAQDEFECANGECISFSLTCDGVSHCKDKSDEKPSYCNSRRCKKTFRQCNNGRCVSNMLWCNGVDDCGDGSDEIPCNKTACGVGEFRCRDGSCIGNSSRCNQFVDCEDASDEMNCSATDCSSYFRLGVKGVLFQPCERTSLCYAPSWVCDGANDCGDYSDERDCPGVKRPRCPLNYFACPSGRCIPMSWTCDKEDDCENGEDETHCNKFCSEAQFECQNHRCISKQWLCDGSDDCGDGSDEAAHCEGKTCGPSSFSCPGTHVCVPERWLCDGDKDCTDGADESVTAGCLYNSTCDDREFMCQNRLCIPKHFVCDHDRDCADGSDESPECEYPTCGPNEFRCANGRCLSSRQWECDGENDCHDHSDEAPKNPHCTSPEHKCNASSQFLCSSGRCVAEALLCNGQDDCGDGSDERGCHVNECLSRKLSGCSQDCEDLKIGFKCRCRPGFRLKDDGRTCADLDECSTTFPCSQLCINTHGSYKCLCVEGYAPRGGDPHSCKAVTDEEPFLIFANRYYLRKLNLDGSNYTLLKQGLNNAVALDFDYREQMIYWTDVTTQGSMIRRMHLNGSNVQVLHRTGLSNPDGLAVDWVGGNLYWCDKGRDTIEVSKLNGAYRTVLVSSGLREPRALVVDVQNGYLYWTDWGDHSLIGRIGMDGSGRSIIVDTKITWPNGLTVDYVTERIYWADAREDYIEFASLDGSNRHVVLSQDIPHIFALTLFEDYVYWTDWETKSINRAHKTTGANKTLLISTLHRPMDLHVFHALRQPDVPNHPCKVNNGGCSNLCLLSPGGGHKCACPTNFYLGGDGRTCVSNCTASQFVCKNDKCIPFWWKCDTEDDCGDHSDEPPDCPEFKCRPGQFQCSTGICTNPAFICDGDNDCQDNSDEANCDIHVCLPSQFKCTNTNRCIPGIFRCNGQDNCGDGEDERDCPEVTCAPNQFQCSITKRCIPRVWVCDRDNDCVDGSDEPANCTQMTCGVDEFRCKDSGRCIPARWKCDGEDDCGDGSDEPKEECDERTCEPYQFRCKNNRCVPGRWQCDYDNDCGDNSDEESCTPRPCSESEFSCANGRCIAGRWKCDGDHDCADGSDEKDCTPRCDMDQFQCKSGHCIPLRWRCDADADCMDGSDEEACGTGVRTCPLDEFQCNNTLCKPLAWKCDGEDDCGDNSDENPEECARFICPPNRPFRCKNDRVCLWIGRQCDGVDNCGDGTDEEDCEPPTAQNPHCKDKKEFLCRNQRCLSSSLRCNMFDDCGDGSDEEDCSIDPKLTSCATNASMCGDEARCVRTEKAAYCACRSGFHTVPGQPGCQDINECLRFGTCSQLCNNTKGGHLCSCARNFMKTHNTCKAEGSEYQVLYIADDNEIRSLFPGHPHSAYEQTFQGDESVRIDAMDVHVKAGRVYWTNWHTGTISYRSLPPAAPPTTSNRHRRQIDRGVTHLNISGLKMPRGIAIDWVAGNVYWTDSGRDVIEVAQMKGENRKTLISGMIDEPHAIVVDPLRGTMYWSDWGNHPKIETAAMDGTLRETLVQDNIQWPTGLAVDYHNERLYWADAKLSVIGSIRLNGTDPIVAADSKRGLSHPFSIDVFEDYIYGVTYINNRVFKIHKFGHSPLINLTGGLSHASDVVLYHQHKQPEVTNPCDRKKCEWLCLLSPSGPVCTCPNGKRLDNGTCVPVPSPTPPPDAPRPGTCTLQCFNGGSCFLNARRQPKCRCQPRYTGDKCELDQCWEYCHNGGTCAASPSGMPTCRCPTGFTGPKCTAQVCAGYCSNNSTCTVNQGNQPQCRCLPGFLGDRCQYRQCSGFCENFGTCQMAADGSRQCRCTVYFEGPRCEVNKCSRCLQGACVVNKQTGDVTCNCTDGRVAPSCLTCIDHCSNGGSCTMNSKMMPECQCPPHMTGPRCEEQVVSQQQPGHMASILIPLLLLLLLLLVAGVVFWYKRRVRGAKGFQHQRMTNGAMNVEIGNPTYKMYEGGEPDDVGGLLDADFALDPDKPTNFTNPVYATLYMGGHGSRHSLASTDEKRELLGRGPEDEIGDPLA

Molecule: 42 amino acid murine amyloid beta (Aβ42) (from UniProt P12023 672-713) (peptide)
- brain efflux of icv I-Aβ42 after two iv injections of anti-LRP-1 antisense cocktail, relative to saline treated mice [1]: 0.87%

Molecule: HSDGIFTDSYSRYRKQMAVKKYLAAVL (peptide, UniProt P18509 132-158, looked up, ends and bridges not checked; also: 131I radioiodinated, residue not given here) [PACAP27 (pituitary adenylate cyclase-activating polypeptide, 27 amino acid form)]
- uptake of I-PACAP27 delivered by brain perfusion, 24 h after iv antisense cocktail against beta-F1 ATPase [2]: 4 fold

— US20100196393A1 (ST LOUIS UNIVERSITY, published 2010)
